Experimental data reported in PMC12416549 (2024).
Numbering of substitutions follows the chain as printed. Names and notes keep the numbering of the source.

Target: T1, TNFR1 (Homo sapiens, UniProt P19438)
T1 chain: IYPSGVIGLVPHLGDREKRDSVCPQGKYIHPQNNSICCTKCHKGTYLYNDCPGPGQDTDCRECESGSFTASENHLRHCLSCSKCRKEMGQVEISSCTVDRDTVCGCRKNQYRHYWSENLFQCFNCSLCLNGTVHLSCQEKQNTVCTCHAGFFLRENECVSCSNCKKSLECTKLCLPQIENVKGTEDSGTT
Assay: yeast display SC50

B1: A15V (designed binder)
chain: MTLQELLREEALRRVEAEAFRYALELLAEKFPEQKEYLLDLAEEIESQIRSLSGVDVEDVRKFLDKEWAWVKELLAEHPAELAEVEAARAARLAELRAEVEAKVAA
B1 was tested, and the “apparent Kd (screen)” value was 0.653 nM.

B2: T2Q (designed binder)
chain: B1 chain with T2Q, V15A
For B2, the “apparent Kd (screen)” value was 1.27 nM.

B3: R8C (designed binder)
chain: B1 chain with R8C, V15A
With B3 the “apparent Kd (screen)” value was 0.593 nM.

B4: R89N (designed binder)
chain: B1 chain with V15A, R89N
In the case of B4, the “apparent Kd (screen)” value is reported as 1.05 nM.

B5: R8P (designed binder)
chain: B1 chain with R8P, V15A
B5 was tested, and the “apparent Kd (screen)” value was 10.4 nM.

B6: A105M (designed binder)
chain: B1 chain with V15A, A105M
In the case of B6, the “apparent Kd (screen)” value is reported as 0.653 nM.

B7: T2D (designed binder)
chain: B1 chain with T2D, V15A
For B7, the “apparent Kd (screen)” value was 1.54 nM.

B8: A28N (designed binder)
chain: B1 chain with V15A, A28N
For B8, the “apparent Kd (screen)” value was 12.5 nM.

B9: E84F (designed binder)
chain: B1 chain with V15A, E84F
With B9 the “apparent Kd (screen)” value was 0.593 nM.

B10: E18H (designed binder)
chain: B1 chain with V15A, E18H
B10 was tested, and the “apparent Kd (screen)” value was 0.49 nM.

B11: E67V (designed binder)
chain: B1 chain with V15A, E67V
In the case of B11, the “apparent Kd (screen)” value is reported as 20.2 nM.

B12: L52A (designed binder)
chain: B1 chain with V15A, L52A
With B12 the “apparent Kd (screen)” value was 0.446 nM.

B13: L6N (designed binder)
chain: B1 chain with L6N, V15A
With B13 the “apparent Kd (screen)” value was 22.2 nM.

B14: A105D (designed binder)
chain: B1 chain with V15A, A105D
In the case of B14, the “apparent Kd (screen)” value is reported as 0.718 nM.

B15: A83K (designed binder)
chain: B1 chain with V15A, A83K
In the case of B15, the “apparent Kd (screen)” value is reported as 0.539 nM.

B16: S53I (designed binder)
chain: B1 chain with V15A, S53I
B16 was tested, and the “apparent Kd (screen)” value was 2.25 nM.

B17: K103W (designed binder)
chain: B1 chain with V15A, K103W
B17 was tested, and the “apparent Kd (screen)” value was 0.718 nM.

B18: A94C (designed binder)
chain: B1 chain with V15A, A94C
In the case of B18, the “apparent Kd (screen)” value is reported as 0.718 nM.

B19: L24F (designed binder)
chain: B1 chain with V15A, L24F
In the case of B19, the “apparent Kd (screen)” value is reported as 0.653 nM.

B20: A94V (designed binder)
chain: B1 chain with V15A, A94V
With B20 the “apparent Kd (screen)” value was 0.539 nM.

B21: A94Y (designed binder)
chain: B1 chain with V15A, A94Y
With B21 the “apparent Kd (screen)” value was 0.593 nM.

B22: S47M (designed binder)
chain: B1 chain with V15A, S47M
For B22, the “apparent Kd (screen)” value was 0.49 nM.

B23: E81W (designed binder)
chain: B1 chain with V15A, E81W
With B23 the “apparent Kd (screen)” value was 0.539 nM.

B24: E36N (designed binder)
chain: B1 chain with V15A, E36N
For B24, the “apparent Kd (screen)” value was 1.27 nM.

B25: A106R (designed binder)
chain: B1 chain with V15A, A106R
B25 was tested, and the “apparent Kd (screen)” value was 0.539 nM.

B26: V55Y (designed binder)
chain: B1 chain with V15A, V55Y
B26 was tested, and the “apparent Kd (screen)” value was 0.956 nM.

B27: A42Q (designed binder)
chain: B1 chain with V15A, A42Q
For B27, the “apparent Kd (screen)” value was 2.05 nM.

B28: E36P (designed binder)
chain: B1 chain with V15A, E36P
B28 was tested, and the “apparent Kd (screen)” value was 0.49 nM.

B29: A87K (designed binder)
chain: B1 chain with V15A, A87K
B29 was tested, and the “apparent Kd (screen)” value was 0.49 nM.

B30: S53H (designed binder)
chain: B1 chain with V15A, S53H
B30 was tested, and the “apparent Kd (screen)” value was 0.653 nM.

B31: L38P (designed binder)
chain: B1 chain with V15A, L38P
In the case of B31, the “apparent Kd (screen)” value is reported as 22.2 nM.

B32: V71I (designed binder)
chain: B1 chain with V15A, V71I
With B32 the “apparent Kd (screen)” value was 0.539 nM.

B33: E16P (designed binder)
chain: B1 chain with V15A, E16P
In the case of B33, the “apparent Kd (screen)” value is reported as 9.41 nM.

B34: F63R (designed binder)
chain: B1 chain with V15A, F63R
B34 was tested, and the “apparent Kd (screen)” value was 9.41 nM.

B35: E44A (designed binder)
chain: B1 chain with V15A, E44A
B35 was tested, and the “apparent Kd (screen)” value was 7.78 nM.

B36: H78P (designed binder)
chain: B1 chain with V15A, H78P
For B36, the “apparent Kd (screen)” value was 1.69 nM.

B37: E101K (designed binder)
chain: B1 chain with V15A, E101K
For B37, the “apparent Kd (screen)” value was 0.653 nM.

B38: G54A (designed binder)
chain: B1 chain with V15A, G54A
With B38 the “apparent Kd (screen)” value was 1.4 nM.

B39: V60Y (designed binder)
chain: B1 chain with V15A, V60Y
B39 was tested, and the “apparent Kd (screen)” value was 0.539 nM.

B40: M1R (designed binder)
chain: B1 chain with M1R, V15A
In the case of B40, the “apparent Kd (screen)” value is reported as 0.593 nM.

B41: K66T (designed binder)
chain: B1 chain with V15A, K66T
B41 was tested, and the “apparent Kd (screen)” value was 0.956 nM.

B42: D59T (designed binder)
chain: B1 chain with V15A, D59T
In the case of B42, the “apparent Kd (screen)” value is reported as 0.446 nM.

B43: H78S (designed binder)
chain: B1 chain with V15A, H78S
B43 was tested, and the “apparent Kd (screen)” value was 0.79 nM.

B44: E5T (designed binder)
chain: B1 chain with E5T, V15A
For B44, the “apparent Kd (screen)” value was 0.446 nM.

B45: E25A (designed binder)
chain: B1 chain with V15A, E25A
With B45 the “apparent Kd (screen)” value was 0.405 nM.

B46: L3M (designed binder)
chain: B1 chain with L3M, V15A
B46 was tested, and the “apparent Kd (screen)” value was 2.73 nM.

B47: A42S (designed binder)
chain: B1 chain with V15A, A42S
For B47, the “apparent Kd (screen)” value was 0.539 nM.

B48: Y22M (designed binder)
chain: B1 chain with V15A, Y22M
With B48 the “apparent Kd (screen)” value was 0.653 nM.

B49: E46P (designed binder)
chain: B1 chain with V15A, E46P
In the case of B49, the “apparent Kd (screen)” value is reported as 0.49 nM.

B50: S53Y (designed binder)
chain: B1 chain with V15A, S53Y
With B50 the “apparent Kd (screen)” value was 6.43 nM.

B51: V55L (designed binder)
chain: B1 chain with V15A, V55L
In the case of B51, the “apparent Kd (screen)” value is reported as 0.653 nM.

B52: K103F (designed binder)
chain: B1 chain with V15A, K103F
For B52, the “apparent Kd (screen)” value was 0.869 nM.

B53: A87S (designed binder)
chain: B1 chain with V15A, A87S
For B53, the “apparent Kd (screen)” value was 0.653 nM.

B54: E36G (designed binder)
chain: B1 chain with V15A, E36G
B54 was tested, and the “apparent Kd (screen)” value was 0.718 nM.

B55: R8Q (designed binder)
chain: B1 chain with R8Q, V15A
For B55, the “apparent Kd (screen)” value was 0.653 nM.

B56: E9L (designed binder)
chain: B1 chain with E9L, V15A
B56 was tested, and the “apparent Kd (screen)” value was 0.718 nM.

B57: L64G (designed binder)
chain: B1 chain with V15A, L64G
B57 was tested, and the “apparent Kd (screen)” value was 1.69 nM.

B58: T2F (designed binder)
chain: B1 chain with T2F, V15A
With B58 the “apparent Kd (screen)” value was 0.539 nM.

B59: G54P (designed binder)
chain: B1 chain with V15A, G54P
In the case of B59, the “apparent Kd (screen)” value is reported as 12.5 nM.
